Data published in paper PMC314469, “Protein Interaction Networks by Proteome Peptide Scanning” (PLoS Biology, 2004).
Blank lines part the entries; values can stand above or below the binder they belong to.

Tests used:
Experiment in all cases: SPOT array
[1] = target: T1, Rvs167 SH3 (RV167_YEAST), P39743
T1 chain: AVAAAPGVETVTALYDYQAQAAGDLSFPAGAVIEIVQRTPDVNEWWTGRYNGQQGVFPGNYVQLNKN

[2] = target: T2, Boi2 SH3 (BOI2_YEAST), P39969
T2 chain: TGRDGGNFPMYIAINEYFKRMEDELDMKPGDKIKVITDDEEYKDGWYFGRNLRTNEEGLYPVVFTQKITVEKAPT

[3] = target: T3, Yhr016c SH3 (YSC84_YEAST), P32793
T3 chain: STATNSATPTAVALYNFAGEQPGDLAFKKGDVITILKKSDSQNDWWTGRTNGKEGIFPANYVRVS

[4] = target: T4, Boi1 SH3 (BOI1_YEAST), P38041
T4 chain: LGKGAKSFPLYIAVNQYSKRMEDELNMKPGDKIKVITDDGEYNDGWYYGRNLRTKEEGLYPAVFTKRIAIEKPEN

[5] = target: Sho1 SH3 (SHO1_YEAST), P40073
[6] = target: T5, Yfr024 SH3 (LSB3_YEAST), P43603
T5 chain: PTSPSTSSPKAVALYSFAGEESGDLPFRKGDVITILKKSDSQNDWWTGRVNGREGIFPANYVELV

[7] = target: T6, Myo5 SH3 (MYO5_YEAST), Q04439
T6 chain: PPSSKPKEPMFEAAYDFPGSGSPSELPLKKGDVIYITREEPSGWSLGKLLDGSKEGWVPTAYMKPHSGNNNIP

Chain of Sho1 SH3 (SHO1_YEAST), P40073 (P40073 295-366): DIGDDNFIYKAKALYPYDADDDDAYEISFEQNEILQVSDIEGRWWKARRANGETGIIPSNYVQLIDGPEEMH

normalised SPOT signal, Boehringer light units (BLU); mean over the file's lines of this peptide [1]: 75.4 | normalised SPOT signal, Boehringer light units (BLU); mean over the file's lines of this peptide [2]: 19.1 | normalised SPOT signal, Boehringer light units (BLU); mean over the file's lines of this peptide [3]: 19.5 | normalised SPOT signal, Boehringer light units (BLU); mean over the file's lines of this peptide [4]: 1040 | normalised SPOT signal, Boehringer light units (BLU); mean over the file's lines of this peptide [5]: 94 | normalised SPOT signal, Boehringer light units (BLU); mean over the file's lines of this peptide [6]: 284 | normalised SPOT signal, Boehringer light units (BLU); mean over the file's lines of this peptide [7]: 476
B1: YLR212C 354-367 (peptide)
chain: VNIGRRSPYLPLQP

normalised SPOT signal, Boehringer light units (BLU); mean over the file's lines of this peptide [1]: 180 | normalised SPOT signal, Boehringer light units (BLU); mean over the file's lines of this peptide [2]: 31.8 | normalised SPOT signal, Boehringer light units (BLU); mean over the file's lines of this peptide [3]: 43.3 | normalised SPOT signal, Boehringer light units (BLU); mean over the file's lines of this peptide [4]: 107 | normalised SPOT signal, Boehringer light units (BLU); mean over the file's lines of this peptide [5]: 30.9 | normalised SPOT signal, Boehringer light units (BLU); mean over the file's lines of this peptide [6]: 98.7 | normalised SPOT signal, Boehringer light units (BLU); mean over the file's lines of this peptide [7]: 130
B2: YMR108W 643-656 (peptide)
chain: VEVDKKVPVLPMVA

normalised SPOT signal, Boehringer light units (BLU); mean over the file's lines of this peptide [1]: 64 | normalised SPOT signal, Boehringer light units (BLU); mean over the file's lines of this peptide [2]: 48.2 | normalised SPOT signal, Boehringer light units (BLU); mean over the file's lines of this peptide [3]: 152 | normalised SPOT signal, Boehringer light units (BLU); mean over the file's lines of this peptide [4]: 1610 | normalised SPOT signal, Boehringer light units (BLU); mean over the file's lines of this peptide [5]: 66.9 | normalised SPOT signal, Boehringer light units (BLU); mean over the file's lines of this peptide [6]: 2590 | normalised SPOT signal, Boehringer light units (BLU); mean over the file's lines of this peptide [7]: 472
B3: YDR436W 385-398 (peptide)
chain: VEMKRKKPVRPVDI

normalised SPOT signal, Boehringer light units (BLU); mean over the file's lines of this peptide [1]: 4070 | normalised SPOT signal, Boehringer light units (BLU); mean over the file's lines of this peptide [2]: 2400 | normalised SPOT signal, Boehringer light units (BLU); mean over the file's lines of this peptide [3]: 348 | normalised SPOT signal, Boehringer light units (BLU); mean over the file's lines of this peptide [4]: 135000 | normalised SPOT signal, Boehringer light units (BLU); mean over the file's lines of this peptide [5]: 119 | normalised SPOT signal, Boehringer light units (BLU); mean over the file's lines of this peptide [6]: 2420 | normalised SPOT signal, Boehringer light units (BLU); mean over the file's lines of this peptide [7]: 1190
B4: YGL097W 70-83 (peptide)
chain: VKRPRLNPFLPRDE

normalised SPOT signal, Boehringer light units (BLU); mean over the file's lines of this peptide [1]: 12.7 | normalised SPOT signal, Boehringer light units (BLU); mean over the file's lines of this peptide [2]: 1.9 | normalised SPOT signal, Boehringer light units (BLU); mean over the file's lines of this peptide [3]: 22.7 | normalised SPOT signal, Boehringer light units (BLU); mean over the file's lines of this peptide [4]: 28.8 | normalised SPOT signal, Boehringer light units (BLU); mean over the file's lines of this peptide [5]: 45.5 | normalised SPOT signal, Boehringer light units (BLU); mean over the file's lines of this peptide [6]: -0 | normalised SPOT signal, Boehringer light units (BLU); mean over the file's lines of this peptide [7]: 157
B5: YNL163C 601-614 (peptide)
chain: VLGPKYDPKSPEEH

normalised SPOT signal, Boehringer light units (BLU); mean over the file's lines of this peptide [1]: 25.6 | normalised SPOT signal, Boehringer light units (BLU); mean over the file's lines of this peptide [2]: 44.6 | normalised SPOT signal, Boehringer light units (BLU); mean over the file's lines of this peptide [3]: 21.8 | normalised SPOT signal, Boehringer light units (BLU); mean over the file's lines of this peptide [4]: 49.8 | normalised SPOT signal, Boehringer light units (BLU); mean over the file's lines of this peptide [5]: 5350 | normalised SPOT signal, Boehringer light units (BLU); mean over the file's lines of this peptide [6]: 90.7 | normalised SPOT signal, Boehringer light units (BLU); mean over the file's lines of this peptide [7]: 510
B6: YDR377W 34-47 (peptide)
chain: VHFYKSLPQGPAPA

normalised SPOT signal, Boehringer light units (BLU); mean over the file's lines of this peptide [1]: 4.4 | normalised SPOT signal, Boehringer light units (BLU); mean over the file's lines of this peptide [2]: 28.2 | normalised SPOT signal, Boehringer light units (BLU); mean over the file's lines of this peptide [3]: 20.6 | normalised SPOT signal, Boehringer light units (BLU); mean over the file's lines of this peptide [4]: 173 | normalised SPOT signal, Boehringer light units (BLU); mean over the file's lines of this peptide [5]: 49.5 | normalised SPOT signal, Boehringer light units (BLU); mean over the file's lines of this peptide [6]: 444 | normalised SPOT signal, Boehringer light units (BLU); mean over the file's lines of this peptide [7]: 230
B7: YCR030C 726-739 (peptide)
chain: VLTVKMSPSLPDEI

normalised SPOT signal, Boehringer light units (BLU); mean over the file's lines of this peptide [1]: 267 | normalised SPOT signal, Boehringer light units (BLU); mean over the file's lines of this peptide [2]: 108 | normalised SPOT signal, Boehringer light units (BLU); mean over the file's lines of this peptide [3]: 128 | normalised SPOT signal, Boehringer light units (BLU); mean over the file's lines of this peptide [4]: 151 | normalised SPOT signal, Boehringer light units (BLU); mean over the file's lines of this peptide [5]: 51.5 | normalised SPOT signal, Boehringer light units (BLU); mean over the file's lines of this peptide [6]: 666 | normalised SPOT signal, Boehringer light units (BLU); mean over the file's lines of this peptide [7]: 213
B8: YPL059W 48-61 (peptide)
chain: VLFMKGTPEFPKSG

normalised SPOT signal, Boehringer light units (BLU); mean over the file's lines of this peptide [1]: 34.4 | normalised SPOT signal, Boehringer light units (BLU); mean over the file's lines of this peptide [2]: 29.5 | normalised SPOT signal, Boehringer light units (BLU); mean over the file's lines of this peptide [3]: 25.5 | normalised SPOT signal, Boehringer light units (BLU); mean over the file's lines of this peptide [4]: 104 | normalised SPOT signal, Boehringer light units (BLU); mean over the file's lines of this peptide [5]: 19.6 | normalised SPOT signal, Boehringer light units (BLU); mean over the file's lines of this peptide [6]: 3.3 | normalised SPOT signal, Boehringer light units (BLU); mean over the file's lines of this peptide [7]: 191
B9: YDR301W 1194-1207 (peptide)
chain: VHVLKYAPDEPNSL

normalised SPOT signal, Boehringer light units (BLU); mean over the file's lines of this peptide [1]: 32.9 | normalised SPOT signal, Boehringer light units (BLU); mean over the file's lines of this peptide [2]: 19.8 | normalised SPOT signal, Boehringer light units (BLU); mean over the file's lines of this peptide [3]: 6.3 | normalised SPOT signal, Boehringer light units (BLU); mean over the file's lines of this peptide [4]: 0 | normalised SPOT signal, Boehringer light units (BLU); mean over the file's lines of this peptide [5]: 36.1 | normalised SPOT signal, Boehringer light units (BLU); mean over the file's lines of this peptide [6]: 0 | normalised SPOT signal, Boehringer light units (BLU); mean over the file's lines of this peptide [7]: 54
B10: YOR151C 910-923 (peptide)
chain: VIIGKTTPISPDEE

normalised SPOT signal, Boehringer light units (BLU); mean over the file's lines of this peptide [1]: 90.2 | normalised SPOT signal, Boehringer light units (BLU); mean over the file's lines of this peptide [2]: 29.2 | normalised SPOT signal, Boehringer light units (BLU); mean over the file's lines of this peptide [3]: 95 | normalised SPOT signal, Boehringer light units (BLU); mean over the file's lines of this peptide [4]: 879 | normalised SPOT signal, Boehringer light units (BLU); mean over the file's lines of this peptide [5]: 267 | normalised SPOT signal, Boehringer light units (BLU); mean over the file's lines of this peptide [6]: 156 | normalised SPOT signal, Boehringer light units (BLU); mean over the file's lines of this peptide [7]: 9050
B11: YDL028C 400-413 (peptide)
chain: VFYHRPAPKPPVTK

normalised SPOT signal, Boehringer light units (BLU); mean over the file's lines of this peptide [1]: 64.7 | normalised SPOT signal, Boehringer light units (BLU); mean over the file's lines of this peptide [2]: 19.2 | normalised SPOT signal, Boehringer light units (BLU); mean over the file's lines of this peptide [3]: 22.1 | normalised SPOT signal, Boehringer light units (BLU); mean over the file's lines of this peptide [4]: 51.6 | normalised SPOT signal, Boehringer light units (BLU); mean over the file's lines of this peptide [5]: 81 | normalised SPOT signal, Boehringer light units (BLU); mean over the file's lines of this peptide [6]: 0 | normalised SPOT signal, Boehringer light units (BLU); mean over the file's lines of this peptide [7]: 96.4
B12: YOL155C 384-397 (peptide)
chain: VFVEKSKPTYPGTE

normalised SPOT signal, Boehringer light units (BLU); mean over the file's lines of this peptide [1]: 71.6 | normalised SPOT signal, Boehringer light units (BLU); mean over the file's lines of this peptide [2]: 8.9 | normalised SPOT signal, Boehringer light units (BLU); mean over the file's lines of this peptide [3]: 32.9 | normalised SPOT signal, Boehringer light units (BLU); mean over the file's lines of this peptide [4]: 1300 | normalised SPOT signal, Boehringer light units (BLU); mean over the file's lines of this peptide [5]: 71.6 | normalised SPOT signal, Boehringer light units (BLU); mean over the file's lines of this peptide [6]: 782 | normalised SPOT signal, Boehringer light units (BLU); mean over the file's lines of this peptide [7]: 534
B13: YPR104C 435-448 (peptide)
chain: VKKEKKPPKIPKKV

normalised SPOT signal, Boehringer light units (BLU); mean over the file's lines of this peptide [1]: 25 | normalised SPOT signal, Boehringer light units (BLU); mean over the file's lines of this peptide [2]: 34.8 | normalised SPOT signal, Boehringer light units (BLU); mean over the file's lines of this peptide [3]: 27.3 | normalised SPOT signal, Boehringer light units (BLU); mean over the file's lines of this peptide [4]: 1590 | normalised SPOT signal, Boehringer light units (BLU); mean over the file's lines of this peptide [5]: 3410 | normalised SPOT signal, Boehringer light units (BLU); mean over the file's lines of this peptide [6]: 426 | normalised SPOT signal, Boehringer light units (BLU); mean over the file's lines of this peptide [7]: 647
B14: YER093C 584-597 (peptide)
chain: VLKIKPLPYKPRGR

normalised SPOT signal, Boehringer light units (BLU); mean over the file's lines of this peptide [1]: 9.9 | normalised SPOT signal, Boehringer light units (BLU); mean over the file's lines of this peptide [2]: 0.8 | normalised SPOT signal, Boehringer light units (BLU); mean over the file's lines of this peptide [3]: 49.9 | normalised SPOT signal, Boehringer light units (BLU); mean over the file's lines of this peptide [4]: 170 | normalised SPOT signal, Boehringer light units (BLU); mean over the file's lines of this peptide [5]: 25.7 | normalised SPOT signal, Boehringer light units (BLU); mean over the file's lines of this peptide [6]: 43.6 | normalised SPOT signal, Boehringer light units (BLU); mean over the file's lines of this peptide [7]: 57.4
B15: YMR239C 193-206 (peptide)
chain: VKATKWPPKLPEIQ

normalised SPOT signal, Boehringer light units (BLU); mean over the file's lines of this peptide [1]: 222 | normalised SPOT signal, Boehringer light units (BLU); mean over the file's lines of this peptide [2]: 77.3 | normalised SPOT signal, Boehringer light units (BLU); mean over the file's lines of this peptide [3]: 71.2 | normalised SPOT signal, Boehringer light units (BLU); mean over the file's lines of this peptide [4]: 594 | normalised SPOT signal, Boehringer light units (BLU); mean over the file's lines of this peptide [5]: 35.6 | normalised SPOT signal, Boehringer light units (BLU); mean over the file's lines of this peptide [6]: 179 | normalised SPOT signal, Boehringer light units (BLU); mean over the file's lines of this peptide [7]: 171
B16: YPL242C 332-345 (peptide)
chain: VEKRKFTPIEPSLL
